These are literature values, as cited in PMC2650229.

pKd: −log10 of the molar value.

The data set deals with ERp57 b' domain (Homo sapiens) (UniProt P30101).
Sequence of UniProt P30101 (P30101 241-360): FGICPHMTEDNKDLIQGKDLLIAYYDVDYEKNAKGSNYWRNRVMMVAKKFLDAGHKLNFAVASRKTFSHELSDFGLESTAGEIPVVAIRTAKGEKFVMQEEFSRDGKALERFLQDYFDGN

Turning to “calreticulin P-domain (from UniProt P27797)”, the pKd (usually the negative decadic logarithm of the Kd, by convention in mol/L) was 5.59.
